Results as given in paper PMC7911427, “Interactions of Bacillus subtilis Basement Spore Coat Layer Proteins” (Microorganisms, 2021).

T1: SpoIVA, adenylate cyclase T18/T25 hybrid (Bacillus subtilis, UniProt P35149 1-492)
T1 construct: SpoIVA, basement layer coat morphogenetic protein (ATPase) of Bacillus subtilis; gene amplified from genomic DNA; also called T25-SpoIVA; T18-SpoIVA; source: bacterial two-hybrid fusion, E. coli BTH101; not shown: T18 or T25 domain of adenylate cyclase, N-terminal or C-terminal (by the plasmid combination), kept
T1 sequence (looked up): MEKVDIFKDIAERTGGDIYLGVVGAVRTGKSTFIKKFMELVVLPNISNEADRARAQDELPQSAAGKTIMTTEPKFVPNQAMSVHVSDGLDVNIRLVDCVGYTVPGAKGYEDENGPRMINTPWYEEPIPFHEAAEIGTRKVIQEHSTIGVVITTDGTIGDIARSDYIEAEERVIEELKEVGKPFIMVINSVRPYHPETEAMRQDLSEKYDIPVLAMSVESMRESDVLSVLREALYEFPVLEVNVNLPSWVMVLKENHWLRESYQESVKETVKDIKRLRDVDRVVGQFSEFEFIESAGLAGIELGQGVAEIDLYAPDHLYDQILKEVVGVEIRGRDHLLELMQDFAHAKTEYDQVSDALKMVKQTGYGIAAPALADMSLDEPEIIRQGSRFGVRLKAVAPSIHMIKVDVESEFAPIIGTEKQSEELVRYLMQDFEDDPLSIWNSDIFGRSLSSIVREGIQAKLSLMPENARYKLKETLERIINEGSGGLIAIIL

B1: YheD, adenylate cyclase T18/T25 hybrid (natural protein, Bacillus subtilis, UniProt O07545 1-453, looked up)
chain: MNPKRFLIGIDKTSENTLFLPSSLKQDGLLHAAFGTKVVRCHVAYRRHLEQTVLLSENLFHELLLPHRSRADILIHDHTVHIGPLVGIFTAGFTVSLERPFKDRSLFFSKLVTLHEQAGGYCFVFGAHQINWEEGTIEGLLYRENGWEKKIVPLPNVVYDRLPNRKIEDSLLLQHTKKRLIDEYQIPWFNKTFFNKWNVHQLLEKDPRTAPFLPRSELTPSVELIDELCGAYKKVYIKPANGALGTGIYQLTRTDGGLTVKHTNDAKTFTSIDYSDAASFLAEFQKHHNPSDFLIQQGVDLIEFQGKPADFRVHTNKNRKGKWTVTAIAVKISGKNSITTHLSNGGTVKTLAEVYDDPAERVEVIKKLSAAALTASHVLHDHIEGFIGEIGFDFGIDQNGKVWMFEANSRPGRSIFSHPNLHHVDSLTKRRSFEYASYLSEKAITSPEALWPS
notes: YheD, spore coat protein of unknown function of Bacillus subtilis; gene amplified from genomic DNA; also called T25–YheD; YheD–T18; source: bacterial two-hybrid fusion, E. coli BTH101; not shown: T18 or T25 domain of adenylate cyclase, N-terminal or C-terminal (by the plasmid combination), kept
B2: CotE, adenylate cyclase T18/T25 hybrid (natural protein, Bacillus subtilis, UniProt P14016 1-181, looked up)
chain: MSEYREIITKAVVAKGRKFTQCTNTISPEKKPSSILGGWIINHKYDAEKIGKTVEIEGYYDINVWYSYADNTKTEVVTERVKYVDVIKLRYRDNNYLDDEHEVIAKVLQQPNCLEVTISPNGNKIVVQAEREFLAEVVGETKVVVEVNPDWEEDDEEDWEDELDEELEDINPEFLVGDPEE
notes: CotE, spore coat morphogenetic protein of Bacillus subtilis; gene amplified from genomic DNA; also called CotE-T25; T25-CotE; source: bacterial two-hybrid fusion, E. coli BTH101; not shown: T18 or T25 domain of adenylate cyclase, N-terminal or C-terminal (by the plasmid combination), kept
B3: YncD (spore alanine racemase), adenylate cyclase T18/T25 hybrid (natural protein, Bacillus subtilis, UniProt P94494 1-394, looked up)
chain: MIKLCREVWIEVNLDAVKKNLRAIRRHIPHKSKIMAVVKANGYGHGSIEVARHALEHGASELAVASVEEGIVLRKAGITAPILVLGFTSLSCVKKSAAWNITLSAFQVDWMKEANEILEKEASANRLAIHINVDTGMGRLGVRTKEELLEVVKALKASKFLRWTGIFTHFSTADEPDTTLTKLQHEKFISFLSFLKKQGIELPTVHMCNTAAAIAFPEFSADMIRLGIGLYGLYPSAYIKQLNLVKLEPALSLKARIAYVKTMRTEPRTVSYGATYIAEPNEVIATLPIGYADGYSRALSNRGFVLHRGKRVPVAGRVTMDMIMVSLGENGEGKQGDEVVIYGKQKGAEISVDEVAEMLNTINYEVVSTLSRRIPRFYIRDGEIFKVSTPVLYV
notes: YncD, spore alanine racemase of Bacillus subtilis; gene amplified from genomic DNA of strain PY79; Cloned into pUT18, pUT18C, pKT25 and pKNT25; also called T18-YncD; YncD-T18; source: bacterial two-hybrid fusion, E. coli BTH101; not shown: T18 or T25 domain of adenylate cyclase, N-terminal or C-terminal (by the plasmid combination), kept
B4: SpoVE, adenylate cyclase T18/T25 hybrid (natural protein, Bacillus subtilis, UniProt P07373 1-366, looked up)
chain: MTTKKTSPDLLLVIITLLLLTIGLIMVYSASAVWADYKFDDSFFFAKRQLLFAGIGVIAMFFIMNVDYWTWRTWSKLLMVICFFLLVLVLIPGVGMVRNGSRSWIGVGAFSIQPSEFMKLAMIAFLAKFLSEKQKNITSFRRGFVPALGIVFSAFLIIMCQPDLGTGTVMVGTCIVMIFVAGARIAHFVFLGLIGLSGFVGLVLSAPYRIKRITSYLNPWEDPLGSGFQIIQSLYAVGPGGLFGMGLGQSRQKFFYLPEPQTDFIFAILSEELGFIGGTLILLLFSVLLWRGIRIALGAPDLYGSFVAVGIISMIAIQVMINIGVVTGLIPVTGITLPFLSYGGSSLTLMLMAVGVLLNVSRYSRY
notes: SpoVE, SEDS family membrane protein essential for cortex synthesis, Bacillus subtilis; gene amplified from genomic DNA; also called SpoVE–T18; T25–SpoVE; source: bacterial two-hybrid fusion, E. coli BTH101; not shown: T18 or T25 domain of adenylate cyclase, N-terminal or C-terminal (by the plasmid combination), kept
B5: SpoVD, adenylate cyclase T18/T25 hybrid (natural protein, Bacillus subtilis, UniProt Q03524 1-646, looked up)
chain: MRVSNVTVRKRLLFVLLFGVIVFLIIDTRLGYVQFVMGEKLTSLAKDSWSRNLPFEPERGEILDRNGVKLATNKSAPTVFVVPRQVQNPMKTSKQLAAVLNMSEEKVYKHVTKKASIEKITPEGRKISNEKAKEIKALDLKGVYVAEDSIRHYPFGSFLSHVLGFAGIDNQGLLGLEAYYDDDLKGEKGSVKFYTDAKGKKMPDEADDYTPPKDGLDMKLTVDSKVQTIMERELDNAEAKYHPDGMIAVAMNPKNGEILGMSSRPDFDPADYQSVDPSVYNRNLPVWSTYEPGSTFKIITLAAALEEQKVNLKRDQFYDKGHAEVDGARLRCWKRGGHGLQTYLEVVQNSCNPGFVELGERLGKEKLFKYIKDFGFGQKTGIDLQGEGTGILFPLERVGPVEQATTAFGQGVSVTPIQQVAAVSAAVNGGTLYTPYIAKEWIDPVTKKTVKKQSPIAKKQVISEETSKQIRYALESVVAEGTGRNAFVEGYRVGGKTGTAQKVKDGKYLENNHIVSFIGFAPADDPSLVVYVAVDNPKGTIQFGGTVAAPIVGNIMRDSLPELGVKPRKNQIEKKYQWNDTKTIEVPNVVGMSVSDLESLLVNLNVDASGKGSKIVKQSPAAGTKVKEGSKIRVYLTEEDEKEAAD
notes: gene amplified from genomic DNA; the positive combinations are N-terminal fusions; also called T18–SpoVD; T25–SpoVD; source: bacterial two-hybrid fusion, E. coli BTH101; not shown: T18 or T25 domain of adenylate cyclase, N-terminal, kept
B6: YhaX, adenylate cyclase T18/T25 hybrid (natural protein, Bacillus subtilis, UniProt O07539 1-288, looked up)
chain: MSKQLLALNIDGALLRSNGKIHQATKDAIEYVKKKGIYVTLVTNRHFRSAQKIAKSLKLDAKLITHSGAYIAEKIDAPFFEKRISDDHTFNIVQVLESYQCNIRLLHEKYSIGNKKKVNSNLLGKALIHPSDPIFYPVQFVESLSDLLMDEPVSAPVIEVYTEHDIQHDITETITKAFPAVDVIRVNDEKLNIVPKGVSKEAGLALVASELGLSMDDVVAIGHQYDDLPMIELAGLGVAMGNAVPEIKRKADWVTRSNDEQGVAYMMKEYFRMQQRKGFLDKFHMKRV
notes: YhaX, spore coat protein of unknown function of Bacillus subtilis; gene amplified from genomic DNA; also called T25–YhaX; YhaX–T18; source: bacterial two-hybrid fusion, E. coli BTH101; not shown: T18 or T25 domain of adenylate cyclase, N-terminal or C-terminal (by the plasmid combination), kept

Columns and labels:
Assay in all cases: two-hybrid; bacterial two hybrid system (BACTH) based on adenylate cyclase T18/T25 fusions in E. coli BTH101; X-gal/IPTG indicator plates at 30 °C for 48 h; beta-galactosidase activity with ONPG in Miller units (Mu)
[1] = target: the molecule itself
[2] = target: B2; conditions: partners not purified
[3] = target: T1, SpoIVA, adenylate cyclase T18/T25 hybrid; conditions: partners not purified
[4] = target: T2, SpoVM, adenylate cyclase T18/T25 hybrid (Bacillus subtilis, UniProt P37817 1-26); conditions: partners not purified
T2 construct: SpoVM, small 26-amino-acid-long basement layer coat morphogenetic peptide of Bacillus subtilis; gene amplified from genomic DNA; also called T18–SpoVM; SpoVM–T18; source: bacterial two-hybrid fusion, E. coli BTH101; not shown: T18 or T25 domain of adenylate cyclase, N-terminal or C-terminal (by the plasmid combination), kept
T2 sequence (P37817 whole entry, the tested form may be a part): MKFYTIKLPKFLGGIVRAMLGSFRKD

Binder	beta-galactosidase activity (Miller units) [1] [Mu]	other results
B1	1720	
B2	360	
B3	220	beta-galactosidase activity (Miller units) [2]: 600 Mu; beta-galactosidase activity (Miller units) [3]: 160 Mu
B4	≤ 360	beta-galactosidase activity, fold of the negative control [4]: ~2 fold
B5	240	beta-galactosidase activity (Miller units) [4]: 420 Mu
B6	704	
